Measurements from paper PMC6047744.

Target: Polθ-helicase domain (human, UniProt O75417 1-894)
Experiment: EMSA

Chain of Polθ-helicase domain (O75417 1-894): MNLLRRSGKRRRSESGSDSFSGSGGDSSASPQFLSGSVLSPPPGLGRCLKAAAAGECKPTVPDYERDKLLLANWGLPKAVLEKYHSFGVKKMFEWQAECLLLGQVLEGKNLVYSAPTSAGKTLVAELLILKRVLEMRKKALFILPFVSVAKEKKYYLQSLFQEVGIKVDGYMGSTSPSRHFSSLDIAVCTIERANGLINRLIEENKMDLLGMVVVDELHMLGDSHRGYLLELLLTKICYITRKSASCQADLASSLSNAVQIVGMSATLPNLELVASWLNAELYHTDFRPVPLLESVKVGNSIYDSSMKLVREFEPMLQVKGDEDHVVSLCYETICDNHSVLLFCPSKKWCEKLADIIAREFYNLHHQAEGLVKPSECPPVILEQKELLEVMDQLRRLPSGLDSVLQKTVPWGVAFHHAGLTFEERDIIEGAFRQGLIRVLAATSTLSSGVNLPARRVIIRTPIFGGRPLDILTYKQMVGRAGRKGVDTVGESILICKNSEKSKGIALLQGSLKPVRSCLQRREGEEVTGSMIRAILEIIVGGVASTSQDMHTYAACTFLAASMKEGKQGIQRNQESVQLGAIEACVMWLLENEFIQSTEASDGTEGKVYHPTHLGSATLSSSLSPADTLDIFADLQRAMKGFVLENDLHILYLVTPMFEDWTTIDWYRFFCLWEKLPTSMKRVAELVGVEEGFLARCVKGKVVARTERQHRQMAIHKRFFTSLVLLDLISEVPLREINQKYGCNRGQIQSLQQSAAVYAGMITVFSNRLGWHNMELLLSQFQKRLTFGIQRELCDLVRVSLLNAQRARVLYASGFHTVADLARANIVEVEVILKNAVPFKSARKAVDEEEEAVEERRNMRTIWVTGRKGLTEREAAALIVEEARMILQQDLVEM

B1: SM76 (ssDNA)
DNA: TTTTATATTTTGTTTTGTGTTATTTTTTTCTTTAACAT
**Q.** Does B1 bind?
**A.** binds
